# Measurements taken from the DeepSol protein solubility set.
# Experiment: soluble on expression in E. coli; label from the status in PepcDB or PDB records
row,Sequence,soluble on expression in E. coli
1,GPGSMIPGLPPAFDVECNRMEDVFASVKSRTVGKDGNLLSPEESWVQRELQYYENLYTEQQELTVCLVTFNVACKKPPANLAALISLKMAEDTNRPVDLIMVSLQEVDMSASAMLKEETEASTPWVVGLHAAVGADSRSPSNTPYFAFPPKQLVGLLLCVYLRRQLLPYMQEMSVATVATGALGSMGNKGAIGLRLVLHRTSLCLINVHLAAGQSNVVKT,not soluble
2,GPGSMITDSHIMRLVTDGRMEMFPAVPPPSADGNGVVMLSCYQRGPLLPPTPPRPSSGRNDRIMWDSWQTRPVPQYRGNPETKTQRGVADWQHVPFACPFLRPVVTDVDRAVRGGNATRWLPTPFVGPQVFTVKDKSAGGVLVEQKEAPSSSTS,not soluble
3,GPGSMKVGNRDYDPCVKVSLELESLLQHHFQQRQHSKRILKDRLRKAELEIAYLQQSVSAYSEELRVERLKFDTLQRTMEDSKRNHAAELMEQDKIIRDRMCNVDTQARLLVVKTEECERRAQCLQKQEEELLNREKELRFYQASFEAGIMPAQRQIEAERVRMLRAREKAEELLEEARISALATEERRKKLEALHNLEMQFFALEKEEATQRIQIMRQEIFGLVGLISFRRTHVSAAEGDAAKRIRLLEEELASKKEVFELREKEVYLRYQREEQRMRDERKRIISIKEAMRQDYRLVLEGIRLFGNEYSTEPDQLQVDALKDLEKLLFSALDDHQLEITKKL,soluble
4,GPGSMLAAVAVPSSSSSTAPGTNTAVSDYFLQKIHELRATQKRTLDNFERLEAQRNDLNRRVRHLKEEVQMLQESGSLVVDVVRVMGKNKVLVKAGSGQGKMVVDVDKSVDFKDLTPNARVALRSGTSAIHYILPTKVDPLVSLMKVEKAGKESTYDEIGGLSRQVKEIKEVIELPVKHPKLFEALGIEQPKGVLLYGPPGTGKTLLARAVAHHTDCTFIRVSGAELVQKYIGEGARMVRELFVMAREHSPSIIFMDEIDSIGSSRLESGENGDSEVQRTMLELLNQLDGFEASKNIKVIMATNRMDILDEALLRPGRIDRKIEFPAPDEAARFEILKIHSRKMNLTRGIDLKDIAKKTSNCSGAELKAVCTEAGMFALRERRVHITHEDFVLAVAKVMHKDQDKNVSLKKMWK,not soluble
5,GPGSMLRAACCVLSGFPASVSRLFFLSWISLVDTALSFPPPRQTEIAPTRVWAGEGGGGGITALQAVTCPSHSTTCAACAGAGQHPPPPCQPPCRCVRVRVCVVHALLLPPPPSLAILLSCAQTTSTSLPPCFRRQSRARPPPHTHTHIHKHRASCAHHLSLPLLPHMSTAADRQAFLRLMGLTDADVTDPDHQPCAMLHSQTSSSHNVTDKVHRGVKYNSPTASSVAGLSHSASLGGDAIQFSLMNTTNTLRDTSPIVASGPSSSSSRPLFSAPRSVHWEEESIATTSHSSQLPQRAGASGCTAAAISEELKDVGNRSFEAGAFREAVQHYTAAIDALAASTTHSSAEVLLLSALYSNRSAAYLQAAHQMPSVEDAYARALCDADRTVSLRTSWFKGYARQGDAYFKLKRYGAAAEAYEMALQLDPRNKTLMNALSESRQRARHAAREELELRRTMRSTTSTTSSLASSMTGQAGSSTWSEGDPRGGAAASQQAQTLSDVYDGGRRRSGQAQQLWAALKHEVEATVHEVTGDAYRLQQLERFRARCSKGATPTARQAAERKTYVKGVTALASGAPASEPMREASVSGSRFSTATRPDVDVSTAAAAAAAERRHVSSVSPFAATALSSEPHLPPRRRSSASAAFDGPVKNARDVPYEFSSAAASAYQQRLLEEFRKRKATKQ,not soluble
6,GPGSMLRRSYATLRRKASVVLKGQLNPLEALTQIQLGMTPSLPIQRGFLLEHCERQLESLGITEGKLLAMDGRLCTQLTKRIVYELYLSVPFRVFTFDMEFTGPPVFTADGPTEDITELGLYSPLLDETFSCLVRPVCGRKQGPGVEELTHITDMMLEREGIPFVEAWQQFLKFVQTPQPDEISGSEERILLLSHGGKLADVSLIKWTLEKFHMELPPSFVFGDTIHLIRDAHRRRPVTIDKHPPSWKLADLVQWLHIPPTLPAHRAGNDARMTWDALYHTLLRYGDDGMTPREQLVPRFFDAEAKQLLREHTARQAQERAALSLDGTFLLADAKQSTSAGHADSSSIGYSVYRSASDGSGKPGKSGAATDLLDLDFDDIFSEQNKVSASAPIEEFKLDDDDDLHSISAGATSFTASRTLSSTTTSRTADLSVDPAEDDNAVSDVNAASTSTVSPARAAKTATSGGRKGKASGSSRSKEAVEKRNKRRVSAGDDDGGETSDPPAAATRAVFLV,soluble
7,GPGSMLRRTDRCGQRKVEKLLVANRGEIACRVFRTCREMHIRTVALFCEAERNAKHVVEADEAVCIGPPPAVNSYLRGDHIISVAKQLNVDAIHPGYGFLSENADFAEAVTRSGIEFIGPPASAISLMGSKSESKRIMEAAGVPVVPGYYGENQNVSFLAEEANRVGFPILIKAVSGGGGKGMKIVERPEDFAFMLESAKREAANFFKDDRVILERYVKRPRHIECQIFFDKHGRGVFFFERDCSVQRRYQKVLEEAPAPHLSMEMRQRIGEVALQAAKAVGYVGAGTVEFIFDTSTGDFYFMEMNTRLQVEHPVTEEVCRIKGAPLDLVKLQIKTAMGKPLTFSQEDVALVGSCIEARVYAESPERGFLPESGPLTFIREPFQGVRGPTRTRLDTGFCEGDNVLIHYDPMLAKVISWGRNREDALKGLRQALGEYKVAGINTNIEFLKRCCEAPEFARGGVTTNFISEHEKQLLNAPAVTPKVAAMAATAWLLNRCDNWRGAFRLNGDTSATVHFYIDNRPVEVRLHTEGANYHKIFFSVWDHEGSFAVGSGPVTSKHRDQRSIVNGFTFLFENGMRHTVLAVATEGDVTIIGSFGLHQIRLLPLTDGFGDASMAGGTSAKIVSPMPGKVSKFLVNSGDFVEKGQALMIVEAMKMEHPVKALQDGQVSFLVKEGEVVGSDHVLATVVQKE,not soluble
8,GPGSMLTLRKQTLPVATATLLLQRRGVEYWGSSVTGRTQPYAQGDLIPRVDNMRHVVSKSSSAAANLTGSNLGVAYDSDTIFSVAGYSRAEKEHYRPLRGIARYKIEPMAESDTVAAQGLLEQAEMSKSISFVVSWWGGVLKDFPSLKKVCDDTFKEEFTSFYKSALSVAHDDAAVKALAVPFVRRQMQEHYISFPMFWRIAEKLADAIEKVPQMQKPARSVSRIAVERVTKIALNTIADEPWALDEMTSPLLFDVSNFRAWHEAGNW,not soluble
9,GPGSMLVSYLRLQADRRTRHHMMVDGQINPREWFNWHPKEYQPWYFDRHKFLYEQRQYAQFHHLLCHQVYLKDMLHLMRYPEPYTHIIDCRTSTQKMHRWVPHSLWLPRDEVEYALQLSADEFLDMYGFRKPDKSDDVILLSHNGIYSEQAGWEWKKQFFQHVYNYRGGTNELFGESYSDMNVSDVLSPWKGPFPQSGVFVDKWSKRKVLTRTGPFDRQYEMQDFALPDLELEKARHPEEGPRQNMPFGLQ,not soluble
10,GPGSMMASFTPLDNFKSRSRGVMPTGIVIDKSCRVYVTQIPLERIERDGASAMKSEFEVYGPLESYKMFTDRSGRFIGSALCTYRNPADASMAVYCMDGVEVEGSTLHVEPAKEHGVVLLASGSSSGGNGQHRDHSRGFLRDTQRQWGRGGRGGAGLLGAGRGSGYSTTGREDASNTSELDLCAEELGLAATDGVSPSAANGKWSHDKYEMMAEGKDMDEVLG,not soluble
11,GPGSMMLQPWLRRGSGATQKYVNGEFKDVPQGDALLVCVPEAHTWFSLHKMLCDPECRRRYPYTQSKKELILRIRRFLNDTLVDQIPALASVQRALEELSFMQPPSDTEAKFKSSLTIEQVPRIMAAVEASRTHSWEDVANTFAAMLKDPRIKNEDAMRMARIFDEMFAENERPK,not soluble
12,GPGSMNPSAAAYIPQQSDAKGDPKSSSAAAVAKPPSTQPATKLSAAAEPFVPGGPKQMSATSTHVDPKATTEDEKTTAPLLMECPASSLPDSAAAAGAAKKEADENDDSQLDWLPEAQPTDWSESKLPKLFGCHNTAAKATSSAIPLHASWDLYADDHQGSSNMASNSSPTSTMSFEPIFVSNVGDVESFWRLWRYLPAPSALPTVYTYSWFRKDIKPEWEHPRNKKGGTISIVVFDRDRSGLSDKQVLDDVFMAMLVGAVGESFHECSTTLNGIMLKVRSNKPVTLQLWTAHSEVGKLKAFANSVRDTLTKIMGAKTLQKLEYYSHHQKQAATNSLAARMKGKTKISPDHTF,soluble
13,GPGSMPATEMQSMEMDTVQSMYDSYELISVDPPTYSVLLTATADDPPELRVTIVYDSEGYPETAAPTVRLEHIAKHRRMQTAALAKEIEDLCAEQIGMHSVISVLQKAQEYLTDYAAMEEKAELQRRGDALTKAAASVSTAAPDPTVRIGTAVTRELFAEWSEKHIAEKLQKRVLSEKKSTKLTGRQLWDGTLKNADWDLFEALEDEQDVDLYTLANGEGEEADEVEYDLDDPAEEG,soluble
14,GPGSMPHGISYYEFPWPDMTAPQQDIVLRSVQVMDYHIKQKGKVLVHCHAGLGRTGLMIACYYVYSQHIPSDEAIALVRKMRPGAIQTTRQAQFIADFEKHLWRLSQAFRVEISDALIDLNLFIQRQRLVLHGEQADLYKSVPLFLHTILCRLLNLTKDNPEAARLALQSLGPSAAPTDTTLSACRIAINRRRFRVQSVRDVSILSFLVCDWFRSTSSPALTEENCDQIVESMRASISKQEGLPLEIRRILSKPARHTLGMVISAFFIISRQVGCVSLTNFAFRCVVDSFNHAFNPIKVRHSPLERELIHKFFLEWGESVGDLYFNYDTVPAAHRTIKRIALASSIVLEATKNTDPPRRSSPSVRTLSVPSSTPEMSSNPAKQTGAPDSALVFSTQSRASHLFDMPLAVETDSESKTRLWRQHLIEYRRDTDGRRGRGERQRPPASSADAKVKR,not soluble
15,GPGSMPRGSSKSKKEVSEEPKTTGGSGGDATETSPPTPKAKKGKGGDKMLVNEPNDEKHTVEDARTVQTPSDHETSAARKKPPPKDVKDEKKSEPAHGGGRLLKNNPNDEVVPVEGMHNVATPRSGLITTESDGAKGTMLRNAPHDEAIPVSGHAITMDTPKRTIDVHPGTITNTDDDDDPKSTEEEESVPIGRTRGYCNPRPEAINLEAEVPETTAPNLGYKPQEYAMVNANASREVQELFKRILDYQPQTPELPAKLRPFIPDYVPSIGDLDPFCKIPRPDGKPDGLGIYVLDEPSVAQSNPAVVLLELRATNIHSVGGLAEAVDSFEDAANRPEVIDRWINDVKKVHYKKPLPTINYQKPMPEIDLLLQVWPQEFEEFLNSDVQFPPPQIDLDLDQYVRALCCILDIPTYTSLIDSLHVMFTLYQEFRANQHFQHE,soluble
16,GPGSMQKENDRMRKKKDEAREEEEISIFHCDDGSVYEGRVTRREIPVELPLGMPTPAPASTLRGQPPPEVMPQIVPIQHGKGIFKDAGGTIYDGNWIEGAMCGEGVLQFPSGATYTGGMRANEFCGTGTYNWPDGSRYEGQWENNRMHGFGVYVDAQGGRWAGKFYRGCGVGLLGEIHL,soluble
17,GPGSMQRHRTPEPGPRGASSQNPRRPPQTSAKSPARRVSRRSSAATTSAPGGIELTRAQQIEAKAARDAVVGAMTKSSPQAAKMFVESISLDVDVETTRQLLCSKKGFVALPSSIGVLCRQLRKLDLSGNGLTDLSPLATLQHLSNLNVAHNGLLASLKGLSGTCLSVLNISFCAVESLEGLEHTALTLRTFIANDNRLQLHSPLLADVVATAGEDAAEMEAAREHLPESLCRSSSHSGADLRAVAQRNYAIFSTFQQCETVVLSRNTRLCQLFPTWGVEEVAAECGEVPGRSSAAADDEGSDDAADGASTTMSADGDGGDSANRGKKHRASAAKRRDRRRIAVHPTDRSASNTPAAAREPFGDSPEMATYNQRRHALALAHPLSVFERLSRLRKLSLSGCELHSLPVRWFLPMVTELRLAQNHLTSLQPDGVILRSLHILDISNNLFASVASLRRCRYLEQLNVRGNPLIEEGVLQDKAAGLTTAERIADVAATTPSSGTSAAPIAVQQRLLRLFPNMKLLDGQPMMTAGQVRSAYMQRNARSAAERQDKLTEKGCSDGSAIVASLHEARDDVGNAHAASDDSERGSSSGDAPRTAPTARAEARSPARKARRADSAVIAAEADEKDNVVEAPLSVVKTAHAQIVRRERVLLRPGAAAASGSNTGAAGQKRKAGQTPTSPAAVVYGQAAVAKLLEQSRSRSAW,not soluble
